From patent US20200010571A1 (Janssen / Centocor, published 2020)
Where “and” joins values, the source holds several entries; their conditions need not be identical. Equal values may be shown once.

Tests used:
[1] = target: T1, rhTNF-α (recombinant human, soluble) (human, UniProt P01375 77-233); assay: cell-based or functional assay
[2] = target: T1, rhTNF-α (recombinant human, soluble); assay: cell-based or functional assay; remark: listed apart in the source
[3] = target: T1, rhTNF-α (recombinant human, soluble); assay: cell-based or functional assay; remark: listed apart in the source
[4] = target: protease-resistant form of human transmembrane TNF-α (lacks amino acids Val1 to Pro12) overexpressed by K2 … (human, UniProt P01375 1-233); assay: cell-based or functional assay
[5] = target: native (endogenous) human TNF-α (human, UniProt P01375 77-233); assay: cell-based or functional assay
[6] = target: T2, cynomolgus TNF-α (cynomolgus, UniProt P79337 77-233); assay: cell-based or functional assay
[7] = target: T3, human IL-17A (recombinant) (human, UniProt Q16552 24-155); assay: cell-based or functional assay
[8] = target: T3, human IL-17A (recombinant); assay: cell-based or functional assay; remark: listed apart in the source
[9] = target: T4, recombinant human IL-17A/F heterodimer (human, UniProt Q16552 24-155; Q96PD4 31-163); assay: cell-based or functional assay
[10] = target: T4, recombinant human IL-17A/F heterodimer; assay: cell-based or functional assay; remark: listed apart in the source
[11] = target: T5, cynomolgus IL-17A (cynomolgus, UniProt Q16552 24-155 (human entry), limits assumed); assay: cell-based or functional assay
T5 chain: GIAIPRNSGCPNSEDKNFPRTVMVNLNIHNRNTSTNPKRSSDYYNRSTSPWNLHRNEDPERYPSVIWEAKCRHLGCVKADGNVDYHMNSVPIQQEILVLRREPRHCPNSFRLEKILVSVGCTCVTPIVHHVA

[12] = target: T5, cynomolgus IL-17A; assay: cell-based or functional assay
[13] = target: T6, recombinant human IL-17F (human, UniProt Q96PD4 31-163); assay: binding to rhIL-17A in the absence or presence of IL-17F
T6 sequence: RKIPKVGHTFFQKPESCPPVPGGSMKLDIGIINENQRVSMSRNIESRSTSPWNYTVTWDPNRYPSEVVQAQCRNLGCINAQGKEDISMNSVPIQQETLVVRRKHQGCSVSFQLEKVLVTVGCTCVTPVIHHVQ

[14] = target: T7, mouse TNF-α (mouse, UniProt P06804 80-235); assay: SPR (Biacore 3000), mAb captured by anti-IgG Fc, antigen in solution
T7 sequence: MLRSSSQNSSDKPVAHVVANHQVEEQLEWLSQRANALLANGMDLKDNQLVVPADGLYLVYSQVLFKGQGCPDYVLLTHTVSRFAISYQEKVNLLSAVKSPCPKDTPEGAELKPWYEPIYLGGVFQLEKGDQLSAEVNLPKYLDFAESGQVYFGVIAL

[15] = target: T8, rat TNF-α (rat, UniProt P16599 80-235); assay: as above
T8 sequence: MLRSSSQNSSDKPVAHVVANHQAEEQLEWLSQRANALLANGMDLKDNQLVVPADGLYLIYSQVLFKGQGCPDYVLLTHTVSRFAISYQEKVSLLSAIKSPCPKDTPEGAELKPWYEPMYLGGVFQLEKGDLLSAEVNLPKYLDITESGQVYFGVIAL

[16] = target: T3, human IL-17A (recombinant); assay: competition ELISA: biotinylated rhIL-17A binding to plate-coated rhIL-17RA-Fc
[17] = target: T2, cynomolgus TNF-α; assay: SPR (Biacore 3000), mAb captured by anti-IgG Fc, antigen in solution, 1:1 Langmuir
[18] = target: T5, cynomolgus IL-17A; assay: as above
[19] = target: T9, mouse IL-17A (mouse, UniProt Q62386 26-158); assay: as above
T9 sequence: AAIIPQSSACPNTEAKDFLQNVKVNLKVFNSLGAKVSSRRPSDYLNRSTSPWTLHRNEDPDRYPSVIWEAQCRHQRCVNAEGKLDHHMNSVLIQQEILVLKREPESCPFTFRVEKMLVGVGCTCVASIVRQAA

[20] = target: T10, rat IL-17A (rat, UniProt Q61453 18-150); assay: as above
T10 chain: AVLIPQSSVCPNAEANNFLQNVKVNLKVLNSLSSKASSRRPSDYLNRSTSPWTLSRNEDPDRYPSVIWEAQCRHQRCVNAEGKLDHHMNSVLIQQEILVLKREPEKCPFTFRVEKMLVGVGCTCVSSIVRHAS

[21] = target: T1, rhTNF-α (recombinant human, soluble); assay: SPR (Biacore 3000), mAb captured by anti-IgG Fc, antigen in solution, 25 C, 1:1 Langmuir
[22] = target: T3, human IL-17A (recombinant); assay: as above
[23] = target: T3, human IL-17A (recombinant); assay: competition ELISA: biotinylated rhIL-17A binding to plate-coated rhIL-17RA-Fc; Experiment 1; 95% CI 0.1171-0.1378
[24] = target: T3, human IL-17A (recombinant); assay: competition ELISA: biotinylated rhIL-17A binding to plate-coated rhIL-17RA-Fc; Experiment 2; 95% CI 0.1639-0.1853
[25] = target: T3, human IL-17A (recombinant); assay: competition ELISA: biotinylated rhIL-17A binding to plate-coated rhIL-17RA-Fc; Experiment 3; 95% CI 0.2415-0.2667

IC50 (µg/mL); Inhibition of native IL-17A mediated GROα production by NHDF; Experiment 1 [7]: 0.0755 µg/mL
IC50 (µg/mL); Inhibition of native IL-17A mediated GROα production by NHDF; Experiment 2 [7]: 0.0692 µg/mL
IC50 (µg/mL); Inhibition of native IL-17A mediated GROα production by NHDF; Experiment 3 [7]: 0.0653 µg/mL
IC50 (µg/mL); Inhibition of native IL-17A mediated IL-6 production by NHDF; Experiment 1 [8]: 0.0478 µg/mL
IC50 (µg/mL); Inhibition of native IL-17A mediated IL-6 production by NHDF; Experiment 2 [8]: 0.038 µg/mL
IC50 (µg/mL); Inhibition of native IL-17A mediated IL-6 production by NHDF; Experiment 3 [8]: 0.0608 µg/mL
IC50 (µg/mL); Inhibition of IL-17A/F mediated GROα production by NHDF; Experiment 1 [9]: 0.283 µg/mL
IC50 (µg/mL); Inhibition of IL-17A/F mediated GROα production by NHDF; Experiment 2 [9]: 0.46 µg/mL
IC50 (µg/mL); Inhibition of IL-17A/F mediated GROα production by NHDF; Experiment 3 [9]: 0.435 µg/mL
IC50 (µg/mL); Inhibition of IL-17A/F mediated IL-6 production by NHDF; Experiment 1 [10]: 0.117 µg/mL
IC50 (µg/mL); Inhibition of IL-17A/F mediated IL-6 production by NHDF; Experiment 2 [10]: 0.133 µg/mL
IC50 (µg/mL); Inhibition of IL-17A/F mediated IL-6 production by NHDF; Experiment 3 [10]: 0.102 µg/mL
IC50 (µg/mL); Inhibition of cyno IL-17A mediated GROα production by NHDF; Experiment 3 [11]: 0.142 µg/mL
IC50 (µg/mL); Inhibition of cyno IL-17A mediated IL-6 production by NHDF; Experiment 3 [12]: 0.0476 µg/mL
binding result [13]: no binding
binding result [14]: no binding (tested: up to 100 nM)
binding result [15]: no binding (tested: up to 100 nM)
fold IC50 against the parental anti-IL-17A antibodies mAb 4782 and mAb 7206 [16]: ~3 fold
Kd [17]: 0.44 nM and 0.16 nM
koff [17]: 0.000114 s⁻¹
kon [17]: 259000 M⁻¹ s⁻¹ and 710000 M⁻¹ s⁻¹
Kd [18]: 0.0265 nM and 0.0277 nM
koff [18]: 3.59e-05 s⁻¹ and 4.4e-05 s⁻¹
kon [18]: 1.35e+06 M⁻¹ s⁻¹ and 1.59e+06 M⁻¹ s⁻¹
Kd [19]: 1.01 nM
koff [19]: 0.00101 s⁻¹
kon [19]: 999000 M⁻¹ s⁻¹
Kd [20]: 13.9 nM
koff [20]: 0.00274 s⁻¹
kon [20]: 197000 M⁻¹ s⁻¹
Kd [21]: 0.0232 nM and 0.0192 nM
koff [21]: 4.07e-05 s⁻¹ and 3.76e-05 s⁻¹
kon [21]: 1.75e+06 M⁻¹ s⁻¹ and 1.96e+06 M⁻¹ s⁻¹
Kd [22]: 0.0244 nM and 0.0389 nM
koff [22]: 4.36e-05 s⁻¹ and 3.74e-05 s⁻¹
kon [22]: 1.78e+06 M⁻¹ s⁻¹ and 961000 M⁻¹ s⁻¹
IC50 [23]: 0.127 µg/mL
IC50 [24]: 0.174 µg/mL
IC50 [25]: 0.254 µg/mL
B1: mAb 8759 (bispecific anti-TNF-α/IL-17A antibody, IgG1, YTE) (bispecific antibody)
heavy 1: not shown
light 1: not shown
heavy 2: QVQLLESGGGLVQPGGSLRLSCAASGFTFSSYAMSWVRQAPGKGLEWVSTISLTSGFTYYADSVKGRFTISRDNSKNTLYLQMNSLRAEDTAVYYCARQLTLDVWGQGTLVTVSSASTKGPSVFPLAPSSKSTSGGTAALGCLVKDYFPEPVTVSWNSGALTSGVHTFPAVLQSSGLYSLSSVVTVPSSSLGTQTYICNVNHKPSNTKVDKKVEPKSCDKTHTCPPCPAPELLGGPSVFLFPPKPKDTLYITREPEVTCVVVDVSHEDPEVKFNWYVDGVEVHNAKTKPREEQYNSTYRVVSVLTVLHQDWLNGKEYKCKVSNKALPAPIEKTISKAKGQPREPQVYTLPPSREEMTKNQVSLTCLVKGFYPSDIAVEWESNGQPENNYKTTPPVLDSDGSFLLYSKLTVDKSRWQQGNVFSCSVMHEALHNHYTQKSLSLSPGK
light 2: QSVLTQPPSVSVAPGQTARISCSGDNLGDKYANWYQQKPGQAPVLVIYDDIDRPSGIPERFSGSNSGNTATLTISGTQAEDEADYYCGSYDFFLGMIVFGGGTKLTVLGQPKAAPSVTLFPPSSEELQANKATLVCLISDFYPGAVTVAWKADSSPVKAGVETTTPSKQSNNKYAASSYLSLTPEQWKSHRSYSCQVTHEGSTVEKTVAPTECS
fold of IC50 against the parental anti-TNF-α antibodies mAb 9809 and mAb 6696; rhTNF-α-induced cytotoxicity in WEHI-164 cells [1]: ~3 fold
IC50 (nM); WEHI-164 cells cytotoxicity mediated by soluble rhTNF-α; Experiment 1 [2]: 1.2 nM
IC50 (nM); WEHI-164 cells cytotoxicity mediated by soluble rhTNF-α; Experiment 2 [2]: 1.73 nM
IC50 (nM); WEHI-164 cells cytotoxicity mediated by soluble rhTNF-α; Experiment 3 [2]: 0.478 nM
IC50 (nM); KYM-1D4 cells, cytotoxicity mediated by soluble rhTNF-α; Experiment 1 [3]: 0.13 nM
IC50 (nM); KYM-1D4 cells, cytotoxicity mediated by soluble rhTNF-α; Experiment 2 [3]: 0.261 nM
IC50 (nM); KYM-1D4 cells, cytotoxicity mediated by soluble rhTNF-α; Experiment 3 [3]: 0.147 nM
IC50 (nM); KYM-1D4 cells, cytotoxicity mediated by membrane bound human TNF-α; Experiment 1 [4]: 0.653 nM
IC50 (nM); KYM-1D4 cells, cytotoxicity mediated by membrane bound human TNF-α; Experiment 2 [4]: 0.883 nM
IC50 (nM); KYM-1D4 cells, cytotoxicity mediated by membrane bound human TNF-α; Experiment 3 [4]: 0.3 nM
IC50 (nM); KYM-1D4 cells, cytotoxicity mediated by endogenous soluble TNF-α; Experiment 1 [5]: 0.283 nM
IC50 (nM); KYM-1D4 cells, cytotoxicity mediated by endogenous soluble TNF-α; Experiment 2 [5]: 0.294 nM
IC50 (nM); KYM-1D4 cells, cytotoxicity mediated by endogenous soluble TNF-α; Experiment 3 [5]: 0.143 nM
IC50 (nM); Inhibition of cyno TNF-α mediated cytotoxicity in WEHI-164 cells; Experiment 1 [6]: 3.82 nM
IC50 (nM); Inhibition of cyno TNF-α mediated cytotoxicity in WEHI-164 cells; Experiment 2 [6]: 14.9 nM
IC50 (nM); Inhibition of cyno TNF-α mediated cytotoxicity in WEHI-164 cells; Experiment 3 [6]: 7.32 nM
